Columns and labels:
[1] = target: PSMGFR N-19 C-5 (SEQ ID NO: 159) (Homo sapiens, UniProt P15941); experiment: Epitope mapping, binding to PSMGFR N-19 C-5 peptide
From the text: FIG. 2B quantifies binding of the 3C2B1 anti-MUC1* antibody to the peptides of FIG. 2A.
(§1) The 3C2B1 epitope was mapped more precisely with additional PSMGFR peptide variants (FIGS. 2A, 2B).

[2] = target: PSMGFR C-10 peptide (SEQ ID NO: 3) (Homo sapiens, UniProt P15941); experiment: ELISA binding to PSMGFR C-10 peptide
From the text: Cancer selective anti-MUC1* antibodies bind to a membrane proximal conformational epitope within the MUC1* extracellular domain, as described in WO 2020/146902.
as §1

[3] = tested on: pancreatic cancer specimens; experiment: IHC of tissue microarray, pancreatic cancer; format: binding, human; conditions: 40 specimens, antibodies at 15 μg/mL
From the text: Tissue microarrays are typically made up of hundreds of tissue specimens, where each specimen in the array comes from a different patient. The breast cancer array contained patient specimens of all types of invasive breast cancers, including less common forms such as carcinomas with medullary features and papillary carcinomas. The lung cancer array contained specimens from patients diagnosed with squamous cell carcinoma, adenocarcinoma, mucinous adenocarcinoma, adenosquamous carcinoma and large cell carcinoma. The pancreatic cancer tissue microarray contained specimens from patients with ductal adenocarcinomas.
Similar to the lung cancer results, antibody 3C2B1 stained pancreatic cancers better than C2. Of the 40 specimens from 40 different pancreatic cancer patients, 27 were positively stained by C2, 3C2B1, or both. Eighteen (18) stained more robustly with 3C2B1 than C2 or were not stained by C2 at all. One specimen stained slightly better with C2 and 8 specimens stained essentially the same with either antibody.
Cancerous tissue arrays were purchased from Tissue Array (Derwood, MD). After deparaffinization, antigen retrieval (pH 6.0) was performed for 10 min. The sections incubated in blocking buffer (10% normal goat serum and 5% BSA in TBS) at room temperature for 1 hr before incubating in either C2 or 3C2B1 in 1% BSA-TBS overnight at 4° C. […]

[4] = tested on: H1975 lung cancer cells (H1975-wt); experiment: Antibody internalization (pHrodo Deep Red), H1975-wt; format: cell-based, human; conditions: H1975-wt cells
Experimental: Antibodies C2 and 3C2B1 were tested for their ability to be internalized by H1975 lung cancer cells (H1975-wt) and H1975 cells that were engineered to express high levels of a recombinant MUC1* polypeptide with a 45 amino acid extracellular domain (H1975-MUC1*45). In contrast to the T47D breast cancer cells, H1975-wt cells internalized 3C2B1 faster than they internalized C2 (FIGS. 4A1-4A28, 4C1-4C28 and 4E). Two (2) hours post incubation with H1975-wt cells, […] the cells had internalized C2. […] Similar to the T47D cells, MUC1*45 expression increased the internalization rate of C2 and decreased the internalization rate of 3C2B1 (FIGS. 4B1-4B28, 4D1-4D28 and 4E).
Antibodies C2 and 3C2B1 were coupled to a pH sensitive fluorophore using the pHrodo Deep Red TFP Ester kit (Thermo cat #P35356), according to manufacturer instructions. Cancer cells were seeded at ˜50,000 cells/well onto μ-Slide 8-well tissue culture-treated, chambered coverslip wells (Ibidi 80806) in their recommended media with 10% FBS. Cells were cultured for 48 hours. Slides were transferred into microscope chamber (37° C.—5% CO2) and equilibrated for ˜30 minutes. The pHrodo Deep Red coupled antibody was then diluted to a concentration of 200 to 300 μg/mL into pre-warmed media supplemented with 10% FBS. Media was removed from the chamber slides and the diluted antibodies were separately added. Fluorescent (655 nm) and phase contrast images at were collected every 10 min for 12h or 16 h with a Leica Thunder Live Cell 3D microscope.
Internalization of the fluorescently labeled antibodies was quantified as follows. Images were imported into ImageJ. The selection tool was used to draw a region of interest (ROI) on the image. The integrated pixel density (mean gray-scale value×area) was then measured by the ImageJ software. Positively-stained cells were manually counted and the integrated pixel density was divided by the number of positive cells to yield “Pixel Intensity per positive cell”.

[5] = Toxicity in animal studies; format: in vivo; conditions: each antibody incorporated into several ADC formats
From the text: Exatecans and deruxtecans can also have bystander effects. […] It is not completely clear whether these side effects are due to the payload or to the HER2 target, which is also expressed on normal lung and normal heart. The first two patients treated with a HER2 targeting CAR T cell product died shortly after the infusion. […] More recently, yet another patient died after being treated with a different HER2-targeting ADC. […] 32CB1, C2 and 20A10 unexpectedly have an extremely high degree of cancer specificity and elicited no toxicities in animal studies, where each antibody was incorporated into several ADC formats.

[6] = tested on: T47D breast cancer cells (T47D-wt); experiment: Antibody internalization (pHrodo Deep Red), T47D-wt; format: cell-based, human
Experimental: Antibodies C2 and 3C2B1 were tested for their ability to be internalized by T47D breast cancer cells (T47D-wt) or T47D cells that were engineered to express high levels of a recombinant MUC1* polypeptide with a 45 amino acid extracellular domain (T47D-MUC1*45), as described in WO2010042562 and WO2010042891. […] C2 internalization was detected within 2.5 hours in T47D-wt cells (FIGS. 3A-3F) and was increased by MUC1*45 expression (FIGS. 3G-3L). […] Unexpectedly, MUC1*45 expression inhibited 3C2B1 internalization (FIG. 3S-3X).
Antibodies C2 and 3C2B1 were coupled to a pH sensitive fluorophore using the pHrodo Deep Red TFP Ester kit (Thermo cat #P35356), according to manufacturer instructions. Cancer cells were seeded at ˜50,000 cells/well onto μ-Slide 8-well tissue culture-treated, chambered coverslip wells (Ibidi 80806) in their recommended media with 10% FBS. Cells were cultured for 48 hours. Slides were transferred into microscope chamber (37° C.—5% CO2) and equilibrated for ˜30 minutes. […]
Internalization of the fluorescently labeled antibodies was quantified as follows. […] The integrated pixel density (mean gray-scale value×area) was then measured by the ImageJ software. Positively-stained cells were manually counted and the integrated pixel density was divided by the number of positive cells to yield “Pixel Intensity per positive cell”.

PSMGFR N-19 C-5 (SEQ ID NO: 159), sequence (P15941 1129-1149 limits assumed): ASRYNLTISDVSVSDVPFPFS
PSMGFR C-10 peptide (SEQ ID NO: 3), sequence (P15941 1110-1144 limits assumed): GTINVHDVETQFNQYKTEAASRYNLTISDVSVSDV

B1: 3C2B1: anti-MUC1* monoclonal antibody that bound to the PSMGFR peptide (antibody, V domains shown)
VH: EVMLVESGGGLVKPGGSLKLSCAASGITFSTYTMSWVRQTPEKRLEWVATISTGGDKTYYSDSVKGRFTISRDNAKNNLYLQMSSLRSEDTALYYCARGTTAMYYYAMDYWGQGTSVTVSS
VL: DIVLTQSPASLAVSLGQRATISCRASKSISTSDYNYIHWYQQKPGQPPKLLIYLASNLESGVPARFSGSGSGTDFTLNIHPVEEEDAATYYCQHSRELPLTFGAGTKLELK
binding to N-19 C-5 variant PSMGFR peptide [1]: bound
binding to PSMGFR C-10 [2]: do not bind
3C2B1 > C2 (number of specimens stained better with 3C2B1) [3]: 18
internalization rate compared to C2 [4]: faster
time by which essentially all the cells had internalized the antibody [4]: ≤ 6 h
fraction of cells that had internalized antibody ([4]; 2 hours post incubation): about one third
fraction of cells that had internalized antibody ([4]; by 4 hours): more than a half
toxicities in animal studies [5]: no toxicities
internalization rate compared to C2 [6]: internalized more slowly

Reference: patent publication US20260137799A1, “ANTI-MUC1* ANTIBODY DRUG COMPLEXES AND USES THEREOF” (Minerva Biotechnologies Corporation, priority 2023, published 2026)
